Four molecules from patent US20110263454A1, “Methods of Identifying Functional Characteristics of Promoters, Transcription Modifying Proteins and Transcription Modulating Agents” (Salk Institute for Biological Studies, priority 2008, published 2011) can be followed below.

The subject of one assay is Bmal1 promoter. Description: NHR-promoter luciferase screen, Bmal1 promoter. The format is cell-based, mouse. As to conditions: for Luc. act., normalized to lacZ / Normalized Luc. act., normalized to control: Bmal1 promoter, HR component without or with ligand; for mBmal1 promoter reporter activity: transcription factor +/- ligand, control = 1.00. The procedure, abridged: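 Luciferase activity was measured 48 h after transfection, normalized to LacZ and then to a control lacking NHR or ligand. CV-1 cells carried 100 ng Bmal1 reporter, 50 ng NHR construct and 50 ng LacZ.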

For a further assay, the system named is mAdiponectin promoter. Kind of assay: NHR-promoter luciferase screen, mAdiponectin promoter. The format is cell-based, mouse. As to conditions: for Luc. act., normalized to lacZ / Normalized Luc. act., normalized to control: Adiponectin, HR component without or with its ligand; for mAdiponectin promoter reporter activity: transcription factor +/- ligand, control = 1.00. In short, it runs like this:
(§1)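 CV-1 cells were co-transfected with 50 ng NHR (homodimer or NHR/RXR heterodimer), 100 ng promoter-luciferase construct and 50 ng LacZ. Luciferase was normalized to LacZ and to a no-NHR/no-ligand control.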

Another assay deals with mPer1 promoter. Kind of assay: NHR-promoter luciferase screen, mPer1 promoter. The format is cell-based, mouse. As to conditions: for Luc. act., normalized to lacZ / Normalized Luc. act., normalized to control: Per1 promoter reporter, co-transfected HR, with or without its ligand; for Normalized Luc. act., normalized to control: relative to control; for luciferase activity normalized to lacZ activity and to a control, mPer1: mPer1 promoter-luciferase, CV-1 cells, NHR +/- ligand, control = 1.00. The procedure, abridged: as §1

A further assay relates to hMyoD promoter. Description: NHR-promoter luciferase screen, hMyoD promoter. The format is cell-based, human. As to conditions: for Luc. act., normalized to lacZ / Normalized Luc. act., normalized to control: MyoD promoter reporter, co-transfected HR, without or with its ligand; for Normalized Luc. act., normalized to control: relative to control; for luciferase activity normalized to lacZ activity and to a control, hMyoD: hMyoD promoter-luciferase, CV-1 cells, NHR +/- ligand, control = 1.00. The procedure, abridged: as §1

Another assay deals with mAgrp promoter. Kind of assay: NHR-promoter luciferase screen, mAgrp promoter. As to conditions: for Results of assays of transcription factor (+/- ligand) with mAgrp: Table 6d, luciferase activity relative to control (control = 1.00); for Luc. act., normalized to lacZ / Normalized Luc. act., normalized to control: mAgrp promoter, HR component with or without ligand; for Normalized Luc. act., normalized to control: relative to control. The format is cell-based, mouse. The procedure, abridged: as §1

The subject of a further assay is mDio1 promoter. Kind of assay: NHR-promoter luciferase screen, mDio1 promoter. The format is cell-based, mouse. As to conditions: for Luc. act., normalized to lacZ / Normalized Luc. act., normalized to control: Dio1, HR component without or with its ligand; for mDio1 promoter reporter activity: transcription factor +/- ligand, control = 1.00. In short, it runs like this:
as §1

B1: TR2: Testicular Orphan Nuclear Receptor 2 (NR2C1), cDNA driver (protein, UniProt P13056 1-603, looked up)
Nuclear receptor subfamily 2 …: MATIEEIAHQIIEQQMGEIVTEQQTGQKIQIVTALDHNTQGKQFILTNHDGSTPSKVILARQDSTPGKVFLTTPDAAGVNQLFFTTPDLSAQHLQLLTDNSPDQGPNKVFDLCVVCGDKASGRHYGAVTCEGCKGFFKRSIRKNLVYSCRGSKDCIINKHHRNRCQYCRLQRCIAFGMKQDSVQCERKPIEVSREKSSNCAASTEKIYIRKDLRSPLTATPTFVTDSESTRSTGLLDSGMFMNIHPSGVKTESAVLMTSDKAESCQGDLSTLANVVTSLANLGKTKDLSQNSNEMSMIESLSNDDTSLCEFQEMQTNGDVSRAFDTLAKALNPGESTACQSSVAGMEGSVHLITGDSSINYTEKEGPLLSDSHVAFRLTMPSPMPEYLNVHYIGESASRLLFLSMHWALSIPSFQALGQENSISLVKAYWNELFTLGLAQCWQVMNVATILATFVNCLHNSLQQDKMSTERRKLLMEHIFKLQEFCNSMVKLCIDGYEYAYLKAIVLFSPDHPSLENMEQIEKFQEKAYVEFQDYITKTYPDDTYRLSRLLLRLPALRLMNATITEELFFKGLIGNIRIDSVIPHILKMEPADYNSQIIGHSI
B1: in the assay on Bmal1 promoter, the “Luc. act., normalized to lacZ” value is 10.8; the “Normalized Luc. act., normalized to control” value came to 0.7; the “mBmal1 promoter reporter activity” value is recorded as 0.69. Moreover, in the assay with mAdiponectin promoter, the “Luc. act., normalized to lacZ” value was 37.5; the “Normalized Luc. act., normalized to control” value is on record as 0.6; the “mAdiponectin promoter reporter activity” value was determined as 0.60. In the assay with mPer1 promoter, the “Luc. act., normalized to lacZ” value was found to be 103.1; the “Normalized Luc. act., normalized to control” value came to 0.7; the “luciferase activity normalized to lacZ activity and to a control, mPer1” value (“luciferase activity normalized … mPer1” for short) is reported as 0.72. Further, in the assay on hMyoD promoter, the “Luc. act., normalized to lacZ” value is 83.1; the “Normalized Luc. act., normalized to control” value amounted to 1.3; the “luciferase activity normalized to lacZ activity and to a control, hMyoD” value (shortened to “luciferase activity normalized … hMyoD”) was found to be 1.31. For the same molecule, in the assay with mAgrp promoter, the “Results of assays of transcription factor (+/- ligand) with mAgrp” value (“Results of assays … with mAgrp” below) turned out to be 0.98; the “Luc. act., normalized to lacZ” value was 39.0; the “Normalized Luc. act., normalized to control” value amounted to 1.0. For the same molecule, in the assay with mDio1 promoter, the “Luc. act., normalized to lacZ” value is on record as 14.8; the “Normalized Luc. act., normalized to control” value is given as 3.3; the “mDio1 promoter reporter activity” value worked out at 3.32.

B2: Erb: Estrogen Receptor β (NR3A2, ERb), cDNA driver (protein, UniProt Q92731 1-530, looked up)
Estrogen receptor beta: MDIKNSPSSLNSPSSYNCSQSILPLEHGSIYIPSSYVDSHHEYPAMTFYSPAVMNYSIPSNVTNLEGGPGRQTTSPNVLWPTPGHLSPLVVHRQLSHLYAEPQKSPWCEARSLEHTLPVNRETLKRKVSGNRCASPVTGPGSKRDAHFCAVCSDYASGYHYGVWSCEGCKAFFKRSIQGHNDYICPATNQCTIDKNRRKSCQACRLRKCYEVGMVKCGSRRERCGYRLVRRQRSADEQLHCAGKAKRSGGHAPRVRELLLDALSPEQLVLTLLEAEPPHVLISRPSAPFTEASMMMSLTKLADKELVHMISWAKKIPGFVELSLFDQVRLLESCWMEVLMMGLMWRSIDHPGKLIFAPDLVLDRDEGKCVEGILEIFDMLLATTSRFRELKLQHKEYLCVKAMILLNSSMYPLVTATQDADSSRKLAHLLNAVTDALVWVIAKSGISSQQQSMRLANLLMLLSHVRHASNKGMEHLLNMKCKNVVPVYDLLLEMLNAHVLRGCKSSITGSECSPAEDSKSKEGSQNPQSQ
For the molecule B2, in the assay with Bmal1 promoter, the “Luc. act., normalized to lacZ” value is reported as 17.0; the “Normalized Luc. act., normalized to control” value was 1.1; the “mBmal1 promoter reporter activity” value is recorded as 1.09. In the assay with mAdiponectin promoter, the “Luc. act., normalized to lacZ” value was found to be 68.6; the “Normalized Luc. act., normalized to control” value came out at 1.1; the “mAdiponectin promoter reporter activity” value amounted to 1.09. Besides, in the assay on mPer1 promoter, the “Luc. act., normalized to lacZ” value is 79.1; the “Normalized Luc. act., normalized to control” value came to 0.5; the “luciferase activity normalized … mPer1” value turned out to be 0.55. Moreover, in the assay with hMyoD promoter, the “Luc. act., normalized to lacZ” value amounted to 50.6; the “Normalized Luc. act., normalized to control” value was 0.8; the “luciferase activity normalized … hMyoD” value came out at 0.80. In addition, in the assay with mAgrp promoter, the “Results of assays … with mAgrp” value came to 0.98; the “Luc. act., normalized to lacZ” value is given as 39.0; the “Normalized Luc. act., normalized to control” value was 1.0. Besides, in the assay with mDio1 promoter, the “Luc. act., normalized to lacZ” value amounted to 9.3; the “Normalized Luc. act., normalized to control” value is listed as 2.1; the “mDio1 promoter reporter activity” value amounted to 2.09.

B3: HNF4g: Hepatocyte Nuclear Factor γ (NR2A2), cDNA driver (protein, UniProt Q14541 1-408, looked up)
Hepatocyte nuclear factor …: MNTTDNGVNCLCAICGDRATGKHYGASSCDGCKGFFRRSIRKSHVYSCRFSRQCVVDKDKRNQCRYCRLRKCFRAGMKKEAVQNERDRISTRRSTFDGSNIPSINTLAQAEVRSRQISVSSPGSSTDINVKKIASIGDVCESMKQQLLVLVEWAKYIPAFCELPLDDQVALLRAHAGEHLLLGATKRSMMYKDILLLGNNYVIHRNSCEVEISRVANRVLDELVRPFQEIQIDDNEYACLKAIVFFDPDAKGLSDPVKIKNMRFQVQIGLEDYINDRQYDSRGRFGELLLLLPTLQSITWQMIEQIQFVKLFGMVKIDNLLQEMLLGGASNDGSHLHHPMHPHLSQDPLTGQTILLGPMSTLVHADQISTPETPLPSPPQGSGQEQYKIAANQASVISHQHLSKQKQL
On to B3, for which, in the assay on Bmal1 promoter, the “Luc. act., normalized to lacZ” value is recorded as 11.5; the “Normalized Luc. act., normalized to control” value worked out at 0.7; the “mBmal1 promoter reporter activity” value is 0.73. In addition, in the assay with mAdiponectin promoter, the “Luc. act., normalized to lacZ” value turned out to be 45.4; the “Normalized Luc. act., normalized to control” value stood at 0.7; the “mAdiponectin promoter reporter activity” value is given as 0.72. Besides, in the assay on mPer1 promoter, the “Luc. act., normalized to lacZ” value amounted to 116.1; the “Normalized Luc. act., normalized to control” value was determined as 0.8; the “luciferase activity normalized … mPer1” value is given as 0.81. In the assay on hMyoD promoter, the “Luc. act., normalized to lacZ” value was determined as 67.2; the “Normalized Luc. act., normalized to control” value came out at 1.1; the “luciferase activity normalized … hMyoD” value is listed as 1.06. In the assay with mAgrp promoter, the “Results of assays … with mAgrp” value is on record as 0.77; the “Luc. act., normalized to lacZ” value amounted to 30.4; the “Normalized Luc. act., normalized to control” value is recorded as 0.8. Moreover, in the assay on mDio1 promoter, the “Luc. act., normalized to lacZ” value was determined as 15.6; the “Normalized Luc. act., normalized to control” value is 3.5; the “mDio1 promoter reporter activity” value is 3.49.

B4: TR4: Testicular Orphan Nuclear Receptor 4 (NR2C2), cDNA driver (protein, UniProt P49116 1-596, looked up)
Nuclear receptor subfamily 2 …: MTSPSPRIQIISTDSAVASPQRIQIVTDQQTGQKIQIVTAVDASGSPKQQFILTSPDGAGTGKVILASPETSSAKQLIFTTSDNLVPGRIQIVTDSASVERLLGKTDVQRPQVVEYCVVCGDKASGRHYGAVSCEGCKGFFKRSVRKNLTYSCRSNQDCIINKHHRNRCQFCRLKKCLEMGMKMESVQSERKPFDVQREKPSNCAASTEKIYIRKDLRSPLIATPTFVADKDGARQTGLLDPGMLVNIQQPLIREDGTVLLATDSKAETSQGALGTLANVVTSLANLSESLNNGDTSEIQPEDQSASEITRAFDTLAKALNTTDSSSSPSLADGIDTSGGGSIHVISRDQSTPIIEVEGPLLSDTHVTFKLTMPSPMPEYLNVHYICESASRLLFLSMHWARSIPAFQALGQDCNTSLVRACWNELFTLGLAQCAQVMSLSTILAAIVNHLQNSIQEDKLSGDRIKQVMEHIWKLQEFCNSMAKLDIDGYEYAYLKAIVLFSPDHPGLTSTSQIEKFQEKAQMELQDYVQKTYSEDTYRLARILVRLPALRLMSSNITEELFFTGLIGNVSIDSIIPYILKMETAEYNGQITGASL
On to B4, for which, in the assay on Bmal1 promoter, the “Luc. act., normalized to lacZ” value worked out at 22.5; the “Normalized Luc. act., normalized to control” value worked out at 1.4; the “mBmal1 promoter reporter activity” value worked out at 1.44. In the assay on mAdiponectin promoter, the “Luc. act., normalized to lacZ” value was determined as 296.1; the “Normalized Luc. act., normalized to control” value is reported as 4.7; the “mAdiponectin promoter reporter activity” value was found to be 4.71. In the assay on mPer1 promoter, the “Luc. act., normalized to lacZ” value is 225.6; the “Normalized Luc. act., normalized to control” value is 1.6; the “luciferase activity normalized … mPer1” value stood at 1.57. Further, in the assay on hMyoD promoter, the “Luc. act., normalized to lacZ” value turned out to be 213.9; the “Normalized Luc. act., normalized to control” value came out at 3.4; the “luciferase activity normalized … hMyoD” value came out at 3.38. In the assay with mAgrp promoter, the “Results of assays … with mAgrp” value was 2.06; the “Luc. act., normalized to lacZ” value is 81.8; the “Normalized Luc. act., normalized to control” value came to 2.1. In addition, in the assay on mAgrp promoter (mAgrp promoter-luciferase, NHR +/- ligand, control = 1.0), the “luciferase/LacZ, mAgrp (selected results)” value came out at 2.1. Moreover, in the assay with mDio1 promoter, the “Luc. act., normalized to lacZ” value came to 56.0; the “Normalized Luc. act., normalized to control” value stood at 12.6; the “mDio1 promoter reporter activity” value is listed as 12.55.
